Values quoted from earlier work, collected in PMC12208613.
Values joined by “and” are separate entries in the source; they are usually repeats but may differ in a detail not shown here. Identical values can stand only once.

Biological target: CD7 (Homo sapiens) (UniProt P09564)
Sequence (P09564 26-180): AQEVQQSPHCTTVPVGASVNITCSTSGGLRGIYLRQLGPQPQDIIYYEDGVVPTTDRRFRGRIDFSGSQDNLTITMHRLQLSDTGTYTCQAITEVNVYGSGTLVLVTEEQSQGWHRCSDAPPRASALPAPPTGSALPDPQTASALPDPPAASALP

K12, sequence (Q8WVN6 29-145): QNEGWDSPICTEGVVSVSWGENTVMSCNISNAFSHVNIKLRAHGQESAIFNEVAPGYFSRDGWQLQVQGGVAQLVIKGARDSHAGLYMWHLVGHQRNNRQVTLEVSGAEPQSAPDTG

Kd: 10 nM and 38 nM
Substance: K12 (from UniProt Q8WVN6)
